Reference: publication PMC11417369, “DNA sequence and chromatin differentiate sequence-specific transcription factor binding in the human malaria parasite Plasmodium falciparum”

T1: AP2-LT D1 (Plasmodium falciparum, UniProt Q8IAM1 2520-2577)
T1 sequence: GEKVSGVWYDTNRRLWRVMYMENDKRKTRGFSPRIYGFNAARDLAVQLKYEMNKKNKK

T2: PF3D7_0420300 D1 (Plasmodium falciparum, UniProt Q8I1N6 1956-2015)
T2 sequence: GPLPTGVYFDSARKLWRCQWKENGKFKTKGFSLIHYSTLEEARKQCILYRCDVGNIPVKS

T3: AP2-HC D1 (Plasmodium falciparum, UniProt Q8IKR9 1316-1374)
T3 sequence: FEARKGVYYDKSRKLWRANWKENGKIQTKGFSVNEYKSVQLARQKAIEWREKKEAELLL


Assays:
Test in all cases: gcPBM; about 25 ug protein; PBS, 1% milk, 0.2 mg/ml BSA, salmon testes DNA, 0.03% Triton X-100
Conditions in all cases: tags: N-terminal GST (pGEX-4T-1), kept; label: surface-attached array probe
[1] = target: T1, AP2-LT D1
[2] = target: T2, PF3D7_0420300 D1
[3] = target: T3, AP2-HC D1

Row | Binder | binding signal [1] | binding signal [2] | binding signal [3]
1 | CACACA_site1716 (dsDNA) DNA 1: GGGGGGGGAGGGTGAATACACACGTAATAATCATAA DNA 2: TTATGATTATTACGTGTGTATTCACCCTCCCCCCCC | 10 ln median PBM intensity, better of two orientations | 10.5 ln median PBM intensity, better of two orientations | –
2 | CACACA_negctrl_site12 (dsDNA) DNA 1: TTCTTCTAATCCTTTTATCTCATTAAAAAAATATAA DNA 2: TTATATTTTTTTAATGAGATAAAAGGATTAGAAGAA | 8.51 ln median PBM intensity, better of two orientations | 8.97 ln median PBM intensity, better of two orientations | –
3 | CACACA_negctrl_site1546 (dsDNA) DNA 1: TCATATATTCAAAAATTTAAAGTTAATAAAACTTGA DNA 2: TCAAGTTTTATTAACTTTAAATTTTTGAATATATGA | 8.35 ln median PBM intensity, better of two orientations | 8.61 ln median PBM intensity, better of two orientations | –
4 | CACACA_site8688 (dsDNA) DNA 1: AAAACACGCGGACACACACACACACCCACCCATATA DNA 2: TATATGGGTGGGTGTGTGTGTGTGTCCGCGTGTTTT | 10.7 ln median PBM intensity, better of two orientations | 10.6 ln median PBM intensity, better of two orientations | –
5 | CACACA_negctrl_site699 (dsDNA) DNA 1: TTTTATTTCAATCCACAAGGGATAAAATAAAGTTTT DNA 2: AAAACTTTATTTTATCCCTTGTGGATTGAAATAAAA | 8.46 ln median PBM intensity, better of two orientations | 8.71 ln median PBM intensity, better of two orientations | –
6 | CACACA_site8115 (dsDNA) DNA 1: AGAAAATACACGCATACACACACACCCACCCACATA DNA 2: TATGTGGGTGGGTGTGTGTGTATGCGTGTATTTTCT | 10.7 ln median PBM intensity, better of two orientations | 10.6 ln median PBM intensity, better of two orientations | –
7 | CACACA_site2826 (dsDNA) DNA 1: AGATATAAGAAAAGCACACACACACCCAAAAAAAAA DNA 2: TTTTTTTTTGGGTGTGTGTGTGCTTTTCTTATATCT | – | – | 12.1 ln median PBM intensity, better of two orientations
8 | CACACA_negctrl_site149 (dsDNA) DNA 1: TCTTATTCAAACGTAAAACGAAGAAGAAAAAAAAAA DNA 2: TTTTTTTTTTCTTCTTCGTTTTACGTTTGAATAAGA | 8.7 ln median PBM intensity, better of two orientations | 8.92 ln median PBM intensity, better of two orientations | –
9 | CACACA_site3848 (dsDNA) DNA 1: ATAAAACAAAAACACACACACATACACAAAAAAAAA DNA 2: TTTTTTTTTGTGTATGTGTGTGTGTTTTTGTTTTAT | – | – | 12.2 ln median PBM intensity, better of two orientations
10 | CACACA_site6310 (dsDNA) DNA 1: ATACATCAAGGACACACACACACACGCACACGCACA DNA 2: TGTGCGTGTGCGTGTGTGTGTGTGTCCTTGATGTAT | 10.6 ln median PBM intensity, better of two orientations | 10.4 ln median PBM intensity, better of two orientations | –
11 | CACACA_negctrl_site1587 (dsDNA) DNA 1: TTATAATATAAAAATAAATAAATAAATAAATAAATA DNA 2: TATTTATTTATTTATTTATTTATTTTTATATTATAA | 8.74 ln median PBM intensity, better of two orientations | 9.04 ln median PBM intensity, better of two orientations | –
12 | CACACA_negctrl_site1225 (dsDNA) DNA 1: ATTTTTTTTTTTTTTTTTTATATGCTCTCCATGAGA DNA 2: TCTCATGGAGAGCATATAAAAAAAAAAAAAAAAAAT | 8.79 ln median PBM intensity, better of two orientations | 8.86 ln median PBM intensity, better of two orientations | –
13 | CACACA_site6304 (dsDNA) DNA 1: CACACGCACGAACACACACACACACGCGCACATATA DNA 2: TATATGTGCGCGTGTGTGTGTGTGTTCGTGCGTGTG | 10.7 ln median PBM intensity, better of two orientations | 10.4 ln median PBM intensity, better of two orientations | –
14 | CACACA_negctrl_site1662 (dsDNA) DNA 1: TTATTCAGAAAAAAAAAAAAAAAAAAAAAAAAAAAA DNA 2: TTTTTTTTTTTTTTTTTTTTTTTTTTTTCTGAATAA | 8.18 ln median PBM intensity, better of two orientations | 8.5 ln median PBM intensity, better of two orientations | –
15 | CACACA_site5283 (dsDNA) DNA 1: AATATAAATAAAAACACACACACACCGATATATATA DNA 2: TATATATATCGGTGTGTGTGTGTTTTTATTTATATT | 10.3 ln median PBM intensity, better of two orientations | 10.3 ln median PBM intensity, better of two orientations | –
16 | CACACA_site5303 (dsDNA) DNA 1: CCCCCCCACGGACACACACACATACATACCACATAT DNA 2: ATATGTGGTATGTATGTGTGTGTGTCCGTGGGGGGG | 11.2 ln median PBM intensity, better of two orientations | 11 ln median PBM intensity, better of two orientations | –
17 | CACACA_negctrl_site593 (dsDNA) DNA 1: TAATTTTTGTAAACAGTCATGGATTCAAAAAAAAAA DNA 2: TTTTTTTTTTGAATCCATGACTGTTTACAAAAATTA | 8.58 ln median PBM intensity, better of two orientations | 8.81 ln median PBM intensity, better of two orientations | –

Row | Binder | binding signal [1] | binding signal [2] | binding signal [3]
18 | CACACA_negctrl_site196 (dsDNA) DNA 1: TTTTTAAATATATAATAGAATTGATTGTATTATATA DNA 2: TATATAATACAATCAATTCTATTATATATTTAAAAA | 8.6 ln median PBM intensity, better of two orientations | 8.88 ln median PBM intensity, better of two orientations | –
19 | CACACA_negctrl_site1507 (dsDNA) DNA 1: TCTTTAAATCGAGTGTTAAATAATATAATATAAAAA DNA 2: TTTTTATATTATATTATTTAACACTCGATTTAAAGA | 8.73 ln median PBM intensity, better of two orientations | 9 ln median PBM intensity, better of two orientations | –
20 | CACACA_negctrl_site1450 (dsDNA) DNA 1: ATATATTTTTAAAAAAATTAAGAATTTTACATCTCC DNA 2: GGAGATGTAAAATTCTTAATTTTTTTAAAAATATAT | 8.56 ln median PBM intensity, better of two orientations | 8.78 ln median PBM intensity, better of two orientations | –
21 | CACACA_negctrl_site1047 (dsDNA) DNA 1: TTCACATGAAGAATTAAAATAAAACTAGGAAATTAA DNA 2: TTAATTTCCTAGTTTTATTTTAATTCTTCATGTGAA | 8.81 ln median PBM intensity, better of two orientations | 9.06 ln median PBM intensity, better of two orientations | –
22 | CACACA_negctrl_site189 (dsDNA) DNA 1: AAGTTTATTATATATAAATTATTATATATATATATA DNA 2: TATATATATATATAATAATTTATATATAATAAACTT | 8.75 ln median PBM intensity, better of two orientations | 9.02 ln median PBM intensity, better of two orientations | –
23 | CACACA_site2302 (dsDNA) DNA 1: GACATATTCCCCCCCACACACACACCCACATACATA DNA 2: TATGTATGTGGGTGTGTGTGTGGGGGGGAATATGTC | 10.9 ln median PBM intensity, better of two orientations | 10.9 ln median PBM intensity, better of two orientations | –
24 | CACACA_site4111 (dsDNA) DNA 1: CCCCCCGTGTTATATACACACATAATCAAATAAAAT DNA 2: ATTTTATTTGATTATGTGTGTATATAACACGGGGGG | 10.8 ln median PBM intensity, better of two orientations | 10.8 ln median PBM intensity, better of two orientations | –
25 | CACACA_negctrl_site737 (dsDNA) DNA 1: TTTTTAATTCAAAAAATAATATATTATATTTCAAAT DNA 2: ATTTGAAATATAATATATTATTTTTTGAATTAAAAA | 8.36 ln median PBM intensity, better of two orientations | 8.79 ln median PBM intensity, better of two orientations | –
26 | CACACA_site2623 (dsDNA) DNA 1: TAATAAATAAATGACACACACACACCCAAAAAAAAA DNA 2: TTTTTTTTTGGGTGTGTGTGTGTCATTTATTTATTA | – | – | 12.1 ln median PBM intensity, better of two orientations
27 | CACACA_negctrl_site676 (dsDNA) DNA 1: TATTTATTGTGATACTTATATTACTTAATGATTAAA DNA 2: TTTAATCATTAAGTAATATAAGTATCACAATAAATA | 8.81 ln median PBM intensity, better of two orientations | 9.03 ln median PBM intensity, better of two orientations | –
28 | CACACA_site4405 (dsDNA) DNA 1: TATATATATCTGTACACACACACATATAAATAAATA DNA 2: TATTTATTTATATGTGTGTGTGTACAGATATATATA | 10.1 ln median PBM intensity, better of two orientations | 10 ln median PBM intensity, better of two orientations | –
29 | CACACA_negctrl_site1242 (dsDNA) DNA 1: TATTATTGTCTTTCAAAAAAAAAAAAAAAAAAAAAA DNA 2: TTTTTTTTTTTTTTTTTTTTTTGAAAGACAATAATA | 8.23 ln median PBM intensity, better of two orientations | 8.46 ln median PBM intensity, better of two orientations | –
30 | CACACA_negctrl_site1067 (dsDNA) DNA 1: ATTATTTTATGAGACATAAAAAAAAAAAAAAAAAAA DNA 2: TTTTTTTTTTTTTTTTTTTATGTCTCATAAAATAAT | 8.39 ln median PBM intensity, better of two orientations | 8.39 ln median PBM intensity, better of two orientations | –
31 | CACACA_negctrl_site917 (dsDNA) DNA 1: ATTTCTATAAAAATAATCTACATTTTTTTTTTTTTT DNA 2: AAAAAAAAAAAAAATGTAGATTATTTTTATAGAAAT | 8.54 ln median PBM intensity, better of two orientations | 8.83 ln median PBM intensity, better of two orientations | –
32 | CACACA_site8058 (dsDNA) DNA 1: AACATACATAAACACACACACACACCCACACCCACA DNA 2: TGTGGGTGTGGGTGTGTGTGTGTGTTTATGTATGTT | 10.6 ln median PBM intensity, better of two orientations | 10.4 ln median PBM intensity, better of two orientations | –
33 | CACACA_negctrl_site1463 (dsDNA) DNA 1: TGTTTCTGCTCTGGACATTTTTAAAAAAGGGAAAGC DNA 2: GCTTTCCCTTTTTTAAAAATGTCCAGAGCAGAAACA | 8.66 ln median PBM intensity, better of two orientations | 8.94 ln median PBM intensity, better of two orientations | –
34 | CACACA_site1515 (dsDNA) DNA 1: AGTACAGACATAGACACACACACACCCATAAAAAAA DNA 2: TTTTTTTATGGGTGTGTGTGTGTCTATGTCTGTACT | – | – | 12.1 ln median PBM intensity, better of two orientations
